{"source": "paper PMC7936274", "binders": {"B1": {"name": "OLE* (P12.2, P13, P14, P15 minimized OLE RNA) (structured_RNA)", "RNA": "GGCCAGUCUGGCGUUUGGUGACAGCGCCAAGUUCUUCGGAAUUGGGAAAUCCUACUGGCC"}}, "target": "T1, OapB (Bacillus halodurans, UniProt Q9KGD7 5-102)", "T1 sequence": "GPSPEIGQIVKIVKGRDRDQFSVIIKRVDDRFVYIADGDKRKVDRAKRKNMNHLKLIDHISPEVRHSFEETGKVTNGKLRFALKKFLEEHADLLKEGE", "assay": "X-ray crystallography"}
{"binder": "B1", "values": [{"measurement": "binding result", "value": "binds"}]}
